Key:
[1] = target: Full-length FLAG-tagged recombinant SMCHD1 (mouse) (UniProt Q6P5D8); assay: negative-stain electron microscopy; purified FLAG-rSMCHD1, 100 ng/ml, 0.75% uranyl formate, 80 kV
[2] = target: the molecule itself; assay: SEC; affinity-purified wild-type and mutant hinge domains on a Superdex 75 10/300 column, 0.5-ml fractions, A280 and Coomassie-stained SDS-PAGE

Molecule	stoichiometry N [1]	stoichiometry N [2]
Full-length FLAG-tagged recombinant SMCHD1, Q6P5D8 1-2007	2	–
SMCHD1 hinge domain, recombinant wild type (residues 1616 to 1963) (domain or fragment, mouse, UniProt Q6P5D8 1616-1963, looked up, SMCHD1 SMC hinge domain, mouse, residues 1616 to 1963; Cloned into pET28a; also called wild-type HD; WT hinge; source: E. coli BL21-RosettaBlue, purified (Talon resin)) NDVKKQQQMAALTKEKDELSKSITMYRSLFDANKQLVDEMKCQAEEAKLKETQLRNELKAYNIDIPATQQTTHIEALLEKKITEQNELKKRPRRLCTLPNYTKRSGDILGKIAHLAQIEDDRAAMVISWHLASDMDCVVTLTTDAARAIYDETQGRQQVLPLDSIYRKTLPDWKRPLPHFRNGKLHFKPFGNPVFARDLLTFPDNIEHCETVFGMLLGDTIILDNLDAANHYRKEVVKITHCPTLLTRDGDRIRSNGKFGGLQNKAPPMDKLRGMVFGAPVPKQCVVLGKQIDLIQQYRTALYRLSSVNEDLDNQLQYLHTPDMKKKKQELDEQEKSLKRIEQKLGMT	–	2

Source: paper PMC4628070, “Independent Mechanisms Target SMCHD1 to Trimethylated Histone H3 Lysine 9-Modified Chromatin and the Inactive X Chromosome” (Molecular and Cellular Biology, 2015)
